Data taken from article PMC3046049 (Science (New York, N.Y.), 2010).

T1: PLC-β3 truncated at residue 886 (UniProt Q01970 1-886)
T1 sequence (looked up): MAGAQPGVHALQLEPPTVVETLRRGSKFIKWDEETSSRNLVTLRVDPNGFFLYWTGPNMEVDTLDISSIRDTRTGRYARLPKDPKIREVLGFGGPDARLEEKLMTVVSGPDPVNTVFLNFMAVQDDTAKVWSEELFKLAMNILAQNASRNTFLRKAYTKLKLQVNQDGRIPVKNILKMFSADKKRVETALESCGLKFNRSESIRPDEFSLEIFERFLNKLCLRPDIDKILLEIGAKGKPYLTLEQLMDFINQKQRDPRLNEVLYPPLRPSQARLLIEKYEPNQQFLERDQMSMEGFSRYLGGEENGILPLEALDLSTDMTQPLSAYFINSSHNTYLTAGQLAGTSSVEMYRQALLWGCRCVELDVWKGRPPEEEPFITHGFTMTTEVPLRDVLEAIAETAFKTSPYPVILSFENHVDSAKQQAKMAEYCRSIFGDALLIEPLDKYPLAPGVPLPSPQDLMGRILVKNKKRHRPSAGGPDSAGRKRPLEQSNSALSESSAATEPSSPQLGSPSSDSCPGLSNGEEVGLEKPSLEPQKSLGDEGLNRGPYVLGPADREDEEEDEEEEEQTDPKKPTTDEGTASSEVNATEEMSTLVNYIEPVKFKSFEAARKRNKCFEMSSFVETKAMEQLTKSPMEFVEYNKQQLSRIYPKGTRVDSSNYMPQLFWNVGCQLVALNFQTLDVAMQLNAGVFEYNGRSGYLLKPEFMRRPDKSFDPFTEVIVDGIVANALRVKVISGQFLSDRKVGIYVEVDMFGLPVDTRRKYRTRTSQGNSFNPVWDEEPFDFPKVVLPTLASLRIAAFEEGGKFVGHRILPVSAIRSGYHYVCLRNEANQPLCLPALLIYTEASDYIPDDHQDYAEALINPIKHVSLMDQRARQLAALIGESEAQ

B1: Gαq (natural protein)
chain: RRELKLLLLGTGESGKSTFIKQMRIIHGSGYSDEDKRGFTKLVYQNIFTAMQAMIRAMDTLKIPYKYEHNKAHAQLVREVDVEKVSAFENPYVDAIKSLWNDPGIQECYDRRREYQLSDSTKYYLNDLDRVADPSYLPTQQDVLRVRVPTTGIIEYPFDLQSVIFRMVDVGGQRSERRKWIHCFENVTSIMFLVALSEYDQVLVESDNENRMEESKALFRTIITYPWFQNSSVILFLNKKDLLEEKIMYSHLVDYFPEYDGPQRDAQAAREFILKMFVDLNPDSDKIIYSHFTCATDTENIRFVFAAVKDTILQLNLKEYNLV
B2: PLC-β3(L859A) (enzyme, UniProt Q01970 1-1234, looked up)
chain: MAGAQPGVHALQLEPPTVVETLRRGSKFIKWDEETSSRNLVTLRVDPNGFFLYWTGPNMEVDTLDISSIRDTRTGRYARLPKDPKIREVLGFGGPDARLEEKLMTVVSGPDPVNTVFLNFMAVQDDTAKVWSEELFKLAMNILAQNASRNTFLRKAYTKLKLQVNQDGRIPVKNILKMFSADKKRVETALESCGLKFNRSESIRPDEFSLEIFERFLNKLCLRPDIDKILLEIGAKGKPYLTLEQLMDFINQKQRDPRLNEVLYPPLRPSQARLLIEKYEPNQQFLERDQMSMEGFSRYLGGEENGILPLEALDLSTDMTQPLSAYFINSSHNTYLTAGQLAGTSSVEMYRQALLWGCRCVELDVWKGRPPEEEPFITHGFTMTTEVPLRDVLEAIAETAFKTSPYPVILSFENHVDSAKQQAKMAEYCRSIFGDALLIEPLDKYPLAPGVPLPSPQDLMGRILVKNKKRHRPSAGGPDSAGRKRPLEQSNSALSESSAATEPSSPQLGSPSSDSCPGLSNGEEVGLEKPSLEPQKSLGDEGLNRGPYVLGPADREDEEEDEEEEEQTDPKKPTTDEGTASSEVNATEEMSTLVNYIEPVKFKSFEAARKRNKCFEMSSFVETKAMEQLTKSPMEFVEYNKQQLSRIYPKGTRVDSSNYMPQLFWNVGCQLVALNFQTLDVAMQLNAGVFEYNGRSGYLLKPEFMRRPDKSFDPFTEVIVDGIVANALRVKVISGQFLSDRKVGIYVEVDMFGLPVDTRRKYRTRTSQGNSFNPVWDEEPFDFPKVVLPTLASLRIAAFEEGGKFVGHRILPVSAIRSGYHYVCLRNEANQPLCLPALLIYTEASDYIPDDHQDYAEAAINPIKHVSLMDQRARQLAALIGESEAQAGQETCQDTQSQQLGSQPSSNPTPSPLDASPRRPPGPTTSPASTSLSSPGQRDDLIASILSEVAPTPLDELRGHKALVKLRSRQERDLRELRKKHQRKAVTLTRRLLDGLAQAQAEGRCRLRPGALGGAADVEDTKEGEDEAKRYQEFQNRQVQSLLELREAQVDAEAQRRLEHLRQALQRLREVVLDANTTQFKRLKEMNEREKKELQKILDRKRHNSISEAKMRDKHKKEAELTEINRRHITESVNSIRRLEEAQKQRHDRLVAGQQQVLQQLAEEEPKLLAQLAQECQEQRARLPQEIRRSLLGEMPEGLGDGPLVACASNGHAPGSSGHLSGADSESQEENTQL

Tests used:
[1] = target: T1, PLC-β3 truncated at residue 886
[2] = target: B1

Row | Binder | Kd [1] [nM] | fold lower binding affinity than PLC-β3 [2] [fold]
1 | B1 | ~200 | 
2 | B2 |  | 7
